Where a chain is given by its changes, count along the chain named. Numbers in names are those of the source.
B1: His-tagged wild type RsbP (natural protein, Bacillus subtilis, UniProt O07014 1-403, looked up)
chain: MDKQLNDAPCGFLALSEEGSIIAANRTLIKILDYEPEQVIGQHMNMMLTIPAQLFCQLYFFPLLKLEHHIEEIYISLKARDGEEIPVLINAIARHDSGASVFDCVLIPMRKRNEYENELLIARNEAQEALLAKQKANAELEIALETLKAKQEELLEINKQNQQFKLNTKRELELARKIQKNSLTEPIVNDQVQIDSYYNASSELSGDLYGYYQIDEHRYGIIILDVMGHGISSALITMSLHPLFQRQITQGLSPVKVMKELDRHLHSLFQNDEEARHYCTAIYLEIDIARQRIDYVNAGHPPALWQDDSGTQHLLHATSPPIGMFEDLEFQSSSLSYTEDGRLLLYTDGVMDPTASCYLFDLLKDHPDSPIADLKEKILTSLQHQKEAHHKSDDECFILVDVK
notes: RsbP serine phosphatase, Bacillus subtilis; called full-length in the results and discussion; predicted monomer mass of the His-tagged protein 48,325; also called WT
B2: His-tagged RsbP-F55A (natural protein, Bacillus subtilis, UniProt O07014 1-403, looked up)
chain: B1 chain with F55A
notes: RsbP serine phosphatase, Bacillus subtilis, with F55A

Target: the molecule itself
Assay: SEC; Superose 12 10/300 GL, 4°C, 20 mM Tris-HCl pH 6.9, 100 mM NaCl, 0.1 mM EDTA; protein applied at 2.5 mg/ml; calibrated with standard proteins

Protein | stoichiometry N | binding result
B1 | 4 | 
B2 |  | binds

Source: article PMC3183031, “An α/β Hydrolase and Associated Per-ARNT-Sim Domain Comprise a Bipartite Sensing Module Coupled with Diverse Output Domains” (PLoS ONE, 2011)
